Assay results: article PMC9724675, “POPDC1 scaffolds a complex of adenylyl cyclase 9 and the potassium channel TREK‐1 in heart” (EMBO Reports, 2022)

Molecular target: T1, POPDC1-Myc (Popeye domain-containing protein 1, Myc-tagged) (mouse, UniProt Q9ES83 1-358)
T1 construct: POPDC1 (Bves), mouse; construct described in Froese et al 2012 and Schindler et al 2016b; Mouse is stated for the BiFC constructs, which were made from the previously described tagged constructs; also called Myc-tagged POPDC1; BVES; source: HEK293 or COS-7, transfected, in cells or in lysate
T1 sequence (looked up): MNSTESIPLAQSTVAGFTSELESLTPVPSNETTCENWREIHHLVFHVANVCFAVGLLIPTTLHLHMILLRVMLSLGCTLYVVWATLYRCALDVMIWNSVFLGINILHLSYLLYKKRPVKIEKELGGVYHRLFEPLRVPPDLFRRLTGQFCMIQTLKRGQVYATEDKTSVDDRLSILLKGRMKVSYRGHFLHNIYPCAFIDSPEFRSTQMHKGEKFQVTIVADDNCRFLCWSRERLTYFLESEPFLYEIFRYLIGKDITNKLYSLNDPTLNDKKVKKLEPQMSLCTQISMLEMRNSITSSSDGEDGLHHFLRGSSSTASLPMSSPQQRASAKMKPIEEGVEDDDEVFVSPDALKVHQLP
Assay: co-IP; IP-AC assay: HEK293 lysates expressing AC1 or AC8 with or without Myc-tagged POPDC1, immunoprecipitation with anti-MYC, AC activity stimulated with 100 μM calcium and 300 nM calmodulin
Conditions: partners not purified

B1: nontagged AC1 (adenylyl cyclase 1) (enzyme)
chain: not shown
notes: adenylyl cyclase 1 (AC1), Ca2+/calmodulin-stimulated; the plasmid is not described; source: HEK293, transfected, in lysate
Which “fold Ca2+/calmodulin-stimulated AC activity in the POPDC1 immunoprecipitate over IgG controls” value does the source give for B1 here?
Its value is 1.59 ± 0.05 fold.
